Test results published in patent US8802826B2, “Anti-clusterin antibodies and antigen binding fragments and their use to reduce tumor volume” (Alethia Biotherapeutics Inc., priority 2009, dated 2014).

Experiments:
[1] = tested on: PC-3 prostate cancer cells; assay: PC-3 prostate tumor xenograft; assay type: in vivo, SCID mice; settings: single injection 10 mg/kg i.p. on day 5
Description: PC-3 prostate cancer cells (2×10^6) were implanted s.c. into SCID mice and allowed to grow until the tumor sizes were approximately 100 mm^3. Tumors were measured bi-weekly with a digital caliper and tumor volumes were calculated as L×W×H. Each group contained 8 animals that were randomized prior to the beginning off the treatments. The results were expressed as mm^3±SEM.
A second prostate cancer model study was conducted in a different tumor model by implanting PC-3 prostate cancer cells. PC-3 cells are also hormone-insensitive but are documented as being slightly more invasive than the DU145 cells. As was described above, the cells were implanted sub-cutaneously in SCID mice and treatments were initiated when the tumors reached a volume of approximately 100 mm^3 (designated day 1). The h16B5 injections were administered i.p. on day 1 at 5 mg/kg and continued twice per week thereafter whereas a single TxT injection at 10 mg/kg was administered i.p. on day 5.

[2] = target: T1, human clusterin (recombinant monomeric clusterin) (Homo sapiens, UniProt P10909); assay: BIAcore kinetic analysis of antibody binding to immobilized clusterin; settings: for KD of the interaction with immobilized human clusterin: stated in words
T1 construct: Recombinant monomeric clusterin was immobilized on a CM3 chip with normal amine coupling method
Description: The purpose of these investigations is to determine the kinetics parameters of anti-clusterin antibodies. In particular, to determine whether the humanization of the 16B5 and 21B12 anti-clusterin monoclonal antibody affects the kinetics parameters of its binding to human clusterin. To this end, a kinetic analysis method was developed using the BIAcore 3000. Human clusterin was immobilized on a sensor chip. Full length antibodies or Fab fragments were injected and allowed to interact with the immobilized clusterin. This example described the exemplary antibody 16B5 but the 21B12 exemplary antibody was prepared and tested in a similar manner.
HBST (10 mM Hepes pH 7.4, 135 mM NaCl, 3.4 mM EDTA, 0.005% Tween 20) was used as running buffer for all BIAcore experiments. Recombinant monomeric clusterin was immobilized on a CM3 chip with normal amine coupling method at a flow of 5 μl/min. Surface was activated with 35 μl of a mixture of 50 mM NHS/0.2M EDC. Clusterin in 10 mM Na-acetate pH 4.5 was injected until a desired amount was captured (below 60RU). Unreacted esters were deactivated with 35 μL1 of 1M ethanolamine hydrochloride-NaOH pH8.5. A control surface was prepared by injecting NHS/EDC and ethanolamine in the same manner.
Kinetics analysis was conducted at a flow of 50 μl/min. Full length antibodies (mouse or humanized) or Fab were diluted in HBST. Concentration range was from 1.953-31.25 nM for the full length antibodies and 15.625-250 nM for the Fab. Each concentration was injected over the clusterin and a control surface for 5 min followed with a 5 min dissociation wash. The clusterin surface was regenerated between each antibody injection with 50 μl of 20 mM HCl.

[3] = tested on: EMT6 cells; assay: wound healing (scratch) migration assay; assay type: cell-based, mouse; settings: 37 C for 15 h
Description: FIG. 4. h16B5 blocks the migration of cancer cell lines.
To test the activity of anti-clusterin antibodies against cancer cell migration, a standard wound healing, or scratch assay, was used. In this assay, EMT6 cells, a mouse mammary carcinoma cell line, was plated at high density and subjected to wounding by the creation of a scratch in the cell layer. At time 0, a wide denuded area is evident that quickly fills up after incubation of the cells at 37 C for 15 h (see upper left-hand panels in FIG. 4).

T1 sequence (P10909 23-449): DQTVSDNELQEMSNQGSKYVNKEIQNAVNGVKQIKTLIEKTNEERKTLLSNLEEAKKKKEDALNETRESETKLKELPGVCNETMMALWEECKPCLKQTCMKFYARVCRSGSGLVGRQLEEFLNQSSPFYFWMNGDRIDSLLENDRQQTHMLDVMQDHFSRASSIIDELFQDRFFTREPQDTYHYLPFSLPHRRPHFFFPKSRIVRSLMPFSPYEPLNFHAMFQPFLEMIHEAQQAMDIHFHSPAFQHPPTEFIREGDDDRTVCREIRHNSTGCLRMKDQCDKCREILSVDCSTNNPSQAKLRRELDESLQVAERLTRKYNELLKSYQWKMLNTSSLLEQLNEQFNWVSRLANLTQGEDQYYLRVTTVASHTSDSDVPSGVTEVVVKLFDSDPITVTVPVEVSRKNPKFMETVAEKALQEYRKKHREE

## CC(=O)O[C@@]12CO[C@@H]1C[C@H](O)[C@@]1(C)C(=O)[C@H](O)C3=C(C)[C@@H](OC(=O)[C@H](O)[C@@H](NC(=O)OC(C)(C)C)c4ccccc4)C[C@@](O)([C@@H](OC(=O)c4ccccc4)[C@H]21)C3(C)C [TxT, taxotere, reference compound]
[1]
  time after injection at which tumors appeared to recover from treatment: approximately 18 days

B1: mouse 21B12: parent mouse anti-clusterin monoclonal antibody, VL SEQ ID NO.:33, VH SEQ ID NO.:37 (antibody, V domains shown)
VH: QIQLVQSGPELKKPGETVKISCKASGYTFTNYGMHWVKQAPGKGLKWMGWINTYTGEPTYADDFKGRFAFSLETSASTAYLQINNLKNEDTATYFCARDGFLYFFDYWGQGTTLTVSS
VL: DIVMSQSPSSLAVSVGEKVTMSCKSSQSLLYSSNQKNYLAWYQQRPGQSPKLLIYWASTRESGVPDRFTGSGSGTDFTLTISSVKAEDLAVYYCQQYYIYPRTFGGGTKLEIK
modifications: murine 21B12 VH; murine 21B12 VL
[2]
  KD of the interaction with immobilized human clusterin: low nM range

B2: HH16B5 Fab: Fab fragment of humanized 16B5 prepared by papain digestion (antibody, V domains shown)
VH: QVQLVQSGAEVKKPGATVKISCKVSGFNIKDIYMHWVQQAPGKGLEWMGRIDPAYGNTKYDPKFQGRVTITADTSTDTAYMELSSLRSEDTAVYYCARRYDTAMDYWGQGTLVTVSS
VL: DIVMTQSPDSLAVSLGERATINCKSSQSLLNSRTRKNYLAWYQQKPGQPPKLLIYWASTRESGVPDRFSGSGSGTDFTLTISSLQAEDVAVYYCKQSYNLWTFGQGTKLEIK
[2]; full length vs full length, Fab vs Fab
  kinetics parameters compared with the parent mouse antibody: slightly better

B3: mouse 16B5: parent mouse anti-clusterin monoclonal antibody, VL SEQ ID NO.:25, VH SEQ ID NO.:29 (antibody, V domains shown)
VH: EVQLQQSGAELVKPGASVRLSCTTSGFNIKDIYMHWVKQRPEQGLEWIGRIDPAYGNTKYDPKFQGKATITADTSSNTAYLQLSSLTSEDTAVYYCARRYDTAMDYWGQGTSVTVSS
VL: DIVMSQSPSSLAVSAGEKVTMSCKSSQSLLNSRTRKNYLAWYQQKPGQSPKLLIYWASTRESGVPDRFTGSGSGTDFTLTISSVQAEDLAVYYCKQSYNLWTFGGGTKLEFK
modifications: murine 16B5 VH; murine 16B5 VL
[3]
  migration of cells into the denuded area: reduced number of cells in the denuded area
[2]
  KD of the interaction with immobilized human clusterin: low nM range
